Assay results published in publication PMC6932780, “Comprehensive analysis of putative dihydroflavonol 4-reductase gene family in tea plant” (PLoS ONE, 2019).

Assays:
Experiment in all cases: purified protein
Assay type in all cases: biochemical, Camellia sinensis
Settings in all cases: 0.24 mM NADPH, citrate-phosphate buffer pH 7.2, 25°C
[1] = substrate: O=C1c2c(O)cc(O)cc2O[C@H](c2ccc(O)c(O)c2)[C@H]1O
[2] = substrate: O=C1c2c(O)cc(O)cc2O[C@H](c2cc(O)c(O)c(O)c2)[C@H]1O
[3] = substrate: O=C1c2c(O)cc(O)cc2O[C@H](c2ccc(O)cc2)[C@H]1O

B1: CsDFRa (Camellia sinensis) (protein)
chain: MKDSVASATASAPGTVCVTGAAGFIGSWLVMRLLERGYIVRATVRDPANLKKVKHLLDLPKADTNLTLWKADLNEEGSFDEAIEGCSGVFHVATPMDFESKDPENEVIKPTINGVLSIIRSCTKAKTVKRLVFTSSAGTVNVQEHQQPVFDENNWSDLDFINKKKMTGWMYFVSKTLAEKAAWEAAKENNIDFISIIPTLVVGPFIMPTFPPSLITALSPITRNEGHYSIIKQGQFVHLDDLCESHIFLYERPQAEGRYICSSHDATIHDLAKLMREKWPEYNVPTEFKGIDKDLPVVSFSSKKLIGMGFEFKYSLEDMFRGAIDTCREKGLLPHSFAENPVNGNKV
notes: full-length ORF in pET-32a, E. coli Rosetta (DE3), Ni Sepharose purified, vector tag removal not mentioned
- Km [1]: 8.0 µM
- Km [2]: 43.0 µM
- Km [3]: 539.8 µM

B2: CsDFRa (Camellia sinensis; N141D) (protein)
chain: MKDSVASATASAPGTVCVTGAAGFIGSWLVMRLLERGYIVRATVRDPANLKKVKHLLDLPKADTNLTLWKADLNEEGSFDEAIEGCSGVFHVATPMDFESKDPENEVIKPTINGVLSIIRSCTKAKTVKRLVFTSSAGTVDVQEHQQPVFDENNWSDLDFINKKKMTGWMYFVSKTLAEKAAWEAAKENNIDFISIIPTLVVGPFIMPTFPPSLITALSPITRNEGHYSIIKQGQFVHLDDLCESHIFLYERPQAEGRYICSSHDATIHDLAKLMREKWPEYNVPTEFKGIDKDLPVVSFSSKKLIGMGFEFKYSLEDMFRGAIDTCREKGLLPHSFAENPVNGNKV
notes: as for B1
- Km [1]: 252.0 µM
- Km [2]: 37.2 µM

B3: CsDFRa (Camellia sinensis; N141A) (protein)
chain: MKDSVASATASAPGTVCVTGAAGFIGSWLVMRLLERGYIVRATVRDPANLKKVKHLLDLPKADTNLTLWKADLNEEGSFDEAIEGCSGVFHVATPMDFESKDPENEVIKPTINGVLSIIRSCTKAKTVKRLVFTSSAGTVAVQEHQQPVFDENNWSDLDFINKKKMTGWMYFVSKTLAEKAAWEAAKENNIDFISIIPTLVVGPFIMPTFPPSLITALSPITRNEGHYSIIKQGQFVHLDDLCESHIFLYERPQAEGRYICSSHDATIHDLAKLMREKWPEYNVPTEFKGIDKDLPVVSFSSKKLIGMGFEFKYSLEDMFRGAIDTCREKGLLPHSFAENPVNGNKV
notes: as for B1
- Km [1]: 88.5 µM
- Km [2]: 90.6 µM
- Km [3]: 398.1 µM
